Measured values reported in PMC9156751, “Dynamic arrest and aging of biomolecular condensates are modulated by low-complexity domains, RNA and biochemical activity” (Nature Communications, 2022).

Biological target: the molecule itself
Assay: dynamic light scattering; 5 µM Dhh1 with an excess of 5 mM ATP/MgCl2, no RNA; reference buffer 90 mM KCl, 30 mM HEPES-KOH pH 7.4, 2 mM MgCl2; Zetasizer Nano ZS, 173° backscattering; combined with microscopy

B1: mCherry-tagged Dhh1^48–425 (domain or fragment, yeast, UniProt P39517 48-425, looked up)
chain: FEDFYLKRELLMGIFEAGFEKPSPIQEEAIPVAITGRDILARAKNGTGKTAAFVIPTLEKVKPKLNKIQALIMVPTRELALQTSQVVRTLGKHCGISCMVTTGGTNLRDDILRLNETVHILVGTPGRVLDLASRKVADLSDCSLFIMDEADKMLSRDFKTIIEQILSFLPPTHQSLLFSATFPLTVKEFMVKHLHKPYEINLMEELTLKGITQYYAFVEERQKLHCLNTLFSKLQINQAIIFCNSTNRVELLAKKITDLGYSCYYSHARMKQQERNKVFHEFRQGKVRTLVCSDLLTRGIDIQAVNVVINFDFPKTAETYLHRIGRSGRFGHLGLAINLINWNDRFNLYKIEQELGTEIAAIPATIDKSLYVAENDET
notes: DEAD-box ATPase Dhh1 of yeast, residues 48-425: the two RecA domains without the N- and C-terminal low-complexity domains; also called tail-less Dhh1^48–425; LCD-lacking variant; source: E. coli BL21-Gold (DE3), purified (Ni2+ Chelating Sepharose, Superdex 75 SEC)
binding result: binds
